Entries after “also recorded” stand apart in the source; their conditions may differ.

Data set [1] can be described thus: Kieffer extensibility test of wheat dough. Particulars: 1 and 10 nkat/g flour, resting 15-45 min, about 22° C. As for the experimental part:
The influence of TYR2 on the large deformation rheology of wheat dough was investigated by using Kieffer extensibility rig (Stable Micro Systems, Ltd. United Kingdom). Dough extensibility and resistance to extension were measured as a function of enzyme dosage and dough's resting time.
Wheat flour was mixed with Farinograph (Brabender, Germany) using 12 g flour and 7.2 ml liquid phase (60%). Tyrosinase (1 and 10 nkat/g flour) was added to water right before mixing with flour. Mixing time was 4 min. Subsequently, dough was placed into a mould to produce approximately 10-12 test strings. The pressed mould was kept at room temperature for 15-45 min to allow stress relaxation. In the Kieffer tests, dough strings were centrally extended until the elastic limit of the string was exceeded and it ruptured. Maximum resistance Rmax, maximum extensibility Emax and extensibility Ex at Rmax were determined by recording the peak force and the distance at the maximum and at the extension limit. All dough preparations, enzyme treatments and measurements were performed at room temperature, approximately at 22° C.

Data set [2] deals with salt soluble proteins (SSP) of chicken breast muscle myofibrils. As to the kind of experiment: Cross-linking of chicken myofibril salt soluble proteins followed by SDS-PAGE. The method, then:
Changes in the molecular weight of the isolated salt soluble proteins (SSP) of chicken breast muscle myofibrils caused by TYR2 were analysed by SDS-PAGE. SPP were isolated according to Xiong and Brekke, 1989. For enzyme treatment SSP was suspended in 50 mM Na-phosphate buffer, pH 7, containing 0.6 M NaCl to the protein concentration of 3 mg/ml. 120 nkat or 240 nkat of TYR2 per gram of protein was added to the suspension. Control suspension was treated in a similar way but without enzyme addition. Reaction mixture was incubated at 30° C. Samples were drawn at the time points of 2 min, 1 hour, 3 hours and 24 hours. SDS-PAGE sample buffer was added and the samples were heated in a boiling water bath. 20 μg of protein from each sample was loaded onto 12% Tris-HCl polyacryl amide gels. SDS-PAGE was performed according to Laemmli, 1970.

A short description of another data set: Isoelectric focusing. The class given is physicochemical. Particulars: purified TYR2, Coomassie Blue staining, pH range 3.5-9.5. The method, then:
The isoelectric point (pI) of the enzyme from culture supernatant and purified enzyme was determined by isoelectric focusing within a pH range of 3.5-9.5 (Ampholine PAGplate 3.5-9.5 for IEF, Amersham Bioscience) on an LKB 2117 Multiphor II Electrophoresis System (LKB Pharmacia, Bromma, Sweden) according to manufacturer's instructions. Bands containing tyrosinase activity were visualized by staining the gel with 15 mM L-Dopa in 0.1 M sodium phosphate buffer (pH 7.0) and proteins by Coomassie Blue staining. […] Under native conditions in isoelectric focusing both the culture filtrate and the purified tyrosinase didn't show a clear band, when stained with L-Dopa, instead the activity was observed as a brown zone at about pH 9.

The next data set relates to α-casein. As to the kind of experiment: Cross-linking of model proteins followed by changes in MW on SDS-PAGE. The method, then: The cross-linking ability in model proteins of TYR2 was also analyzed by following changes in MW on SDS-PAGE. […] Details are given in examples 8 and 9.
For the next data set, the system named is caseinate. As to the kind of experiment: Caseinate gel hardness by Texture Analyzer. Particulars: 3% caseinate, 0.4% GDL, 20 nkat/g protein TYR2, 22 hours, room temperature. The method, then: 3% of commercial caseinate was mixed in water and 0.4% GDL (glucono-delta-lactone) and 20 nkat/g protein of TYR2 was added to the mixture. It was allowed to rest for 22 hours at room temperature, whereafter the gel hardness was measured by Texture Analyzer (FIG. 6).

In data set [3] the test system is chicken breast myofibrils. As to the kind of experiment: Gel forming of chicken myofibril matrix, storage modulus (G′), Bohlin Rheometer. The following applies: 240 nkat TYR2/g protein, 25, 30 and 40° C., 3 hours, pH 6. The method, then:
Ability of TYR2 to form cross-links in a chicken myofibril matrix was also investigated as a development of storage modulus (G′) measuring gel forming ability at low deformation. Measurements were carried out during heating at constant temperature using a Bohlin Rheometer. Chicken breast myofibrils were isolated according to Xiong and Brekke (1989) omitting EDTA and NaN3 from the isolation buffer. Isolated myofibrils were suspended in 50 mM Na-phosphate buffer, pH 6, supplemented with 0.30 M NaCl to the protein concentration of 40 mg/ml. Suspensions were treated with 240 nkat of TYR2 per gram of protein at 25° C., 30° C. and 40° C. for 3 hours. Control samples were treated in a similar way but without enzyme.

Data set [4] can be described thus: pH optimum of the tyrosinase by oxygen consumption measurements. The class given is biochemical. Particulars: 15 mM L-Dopa, 4.3 μg purified tyrosinase. The method, then: pH optimum for the tyrosinase was studied by oxygen consumption measurements. Measurements were performed with a single channel oxygen meter (Precision sensing GmbH, Germany) containing fiber-optic oxygen minisensors with measurement range 0-100% oxygen. L-Dopa in 15 mM concentration, dissolved in 0.1 M sodium phosphate buffer, pH 7.0, was used as substrate. Reactions were carried out with 1.8 ml substrate solution and with 4.3 μg of the purified T. reesei tyrosinase. Three different buffers were used according to their buffer capacity. McIlvaine buffer was used within a pH range of 2-7, Tris-HCl buffer (50 mM) within a pH range 7-9 and borate buffer (12.5 mM) within a pH range of 8-9.5. The pH optimum of TYR2 is at 8-8.5. The enzyme has relatively high activity within a quite wide pH range, 5-9. […] In the measurements with Tris-HCl buffer in pH 8, 8.5 and 9.0 also a blank test without enzyme addition was performed to correct the effect of auto-oxidation in results. The pH optimum of the tyrosinase seemed to be dependant on the buffer.

The nature of data set [5]: Stability of the enzyme at different pH-values (residual activity on L-Dopa). The class given is physicochemical. Particulars: McIlvaine buffer, room temperature. As for the experimental part:
The stability of the enzyme at different pH-values was determined in McIlvaine, 50 mM Na2HPO4-25 mM citric acid, buffer by incubating the enzyme solution in different pH-values at room temperature. The residual tyrosinase activity was determined by measuring the activity of the enzyme solutions with L-Dopa as substrate.

B1: TYR2: extracellular tyrosinase of Trichoderma reesei encoded by tyr2, SEQ ID NO:4, 571 amino acids, C-terminally processed (protein, listed as Trichoderma reesei)
chain: MLLSASLSALALATVSLAQGTTHIPVTGVPVSPGAAVPLRQNINDLAKSGPQWDLYVQAMYNMSKMDSHDPYSFFQIAGIHGAPYIEYNKAGAKSGDGWLGYCPHGEDLFISWHRPYVLLFEQALVSVAKGIANSYPPSVRAKYQAAAASLRAPYWDWAADSSVPAVTVPQTLKINVPSGSSTKTVDYTNPLKTYYFPRMSLTGSYGEFTGGGNDHTVRCAASKQSYPATANSNLAARPYKSWILVTDTESGPQYDVLTNSQNFADFASTSGPGINVEQIHNAIHWDGACGSQFLAPDYSGFDPLFFMHHAQVDRMWAFWEAIMPSSPLFTASYKGQSRFNSKSGSTITPDSPLQPFYQANGKFHTSNTVKSIQGMGYSYQGIEYWQKSQAQIKSSVTTIINQLYGPNSGKKRNAPRDFLSDIVTDVENLIKTRYFAKISVNVTEVTVRPAEINVYVGGQKAGSLIVMKLPAEGTVNGGFTIDNPMQSILHGGLRNAVQAFTEDIEVEILSKDGQAIPLETVPSLSIDLEVANVTLPSALDQLPKYGQRSRHRAKAAQRGHRFAVPHIPPL
modifications: C-terminally processed
For the molecule B1, in data set [1], the “Dough extensibility Ex at Rmax” value is “decreased the dough extensibility Ex at Rmax” and the “Maximum resistance Rmax of dough” value is “increased the maximum resistance Rmax of dough”. Also, the “Detectable electrophoretic changes of SSP” value in data set [2] (120 or 240 nkat TYR2/g protein, 30° C., pH 7, up to 24 h) is recorded as “progressive disappearance of the myosin band of ˜200 kDa; also recorded: progressive disappearance of the band of ˜36 kDa; also recorded: appearance of large molecular weight protein products (>200 kDa)”. Moreover, in data set [2] (chicken myofibril), the “Cross-linking ability (changes in MW on SDS-PAGE)” value is given as “able to cross-link”. Moreover, in “Isoelectric focusing”, the “Isoelectric point (bands in isoelectric focusing)” value was ~9. Besides, the “Cross-linking ability (changes in MW on SDS-PAGE)” value in the data set on α-casein is on record as “able to cross-link”. Also, the “Hardness of caseinate gel” value in the data set with caseinate was “doubled the hardness of the caseinate gel”. In data set [3], the “Storage modulus (G′), gel forming” value is “greater increase in G′”. In addition, the “pH range of relatively high activity” value in data set [4] is listed as 5-9. Further, the pH optimum in data set [4] (McIlvaine, Tris-HCl, borate buffers) is recorded as 8-8.5. In addition, the pH stability result in data set [5] was “good stability at neutral and alkaline pH”.
